Test [1] deals with T1, human EPO receptor (human, UniProt P19235 25-508).
T1 construct: whole, on cells; In the Western blots the receptor stood in lysates of HeLa-EPOR (recombinant) and UT-7 cells; band of about 60 kDa; also called human erythropoietin receptor
T1 sequence (looked up): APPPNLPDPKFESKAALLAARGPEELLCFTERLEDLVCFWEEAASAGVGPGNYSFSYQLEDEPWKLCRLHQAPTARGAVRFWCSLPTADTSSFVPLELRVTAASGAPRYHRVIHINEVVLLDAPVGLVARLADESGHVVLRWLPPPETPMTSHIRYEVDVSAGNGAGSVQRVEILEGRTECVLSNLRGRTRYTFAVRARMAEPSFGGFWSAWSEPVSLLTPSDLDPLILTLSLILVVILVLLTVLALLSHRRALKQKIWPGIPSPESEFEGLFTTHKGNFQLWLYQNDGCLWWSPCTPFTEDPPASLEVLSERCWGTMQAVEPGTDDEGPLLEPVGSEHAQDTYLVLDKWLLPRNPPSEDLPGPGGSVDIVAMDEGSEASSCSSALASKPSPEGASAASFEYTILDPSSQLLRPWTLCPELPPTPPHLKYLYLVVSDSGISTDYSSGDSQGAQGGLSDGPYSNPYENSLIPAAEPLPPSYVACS
As to the kind of experiment: Western blot of lysates of HELAwt, HELA-EPOR and UT-7 cells. As for the experimental part: FIG. 2 WB analysis of lysates from HELAwt, HELA-EPOR and UT-7 cells (to show specificity). (a) Specific binding of Mab Cl. […] (b) Specific binding of Mab Cl.
The SDS-PAGE and western blotting were performed according to standard procedures and the NuPAGE® gel system of Invitrogen. The extracts corresponding to different number of cells were loaded in each line of a NuPAGE® Novex® 4-12% Bis-Tris gel. The proteins were then transferred onto PVDF membranes and incubated with the respective antibodies overnight at 4° C. After washing, the membranes were incubated with a conjugate anti-mouse or anti-rabbit IgG-POD and developed using ECL reagents (Lumi-Light^PLus western blotting substrate, Roche Diagnostics GmbH): Results are shown in FIG. 2.
On the technique in general: Immunoblotting shows a protein as a band on a membrane.

The target of test [2] is T2, biotinylated peptide 382-402 (corresponding to the mature EPOR) (human, biotinylated (site not stated)).
T2 construct: Range counted on mature human EPOR (aa406-426 of the precursor); also called EPOR peptide 382-402
T2 peptide: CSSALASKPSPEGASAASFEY
As to the kind of experiment: Biacore 3000 SPR, 25 C, antibody on immobilized biotinylated peptide (avidity). Here is the method: Measurements were made on a BIACORE™ 3000 at 25° C. in HBS-EP-Buffer, pH 7.4 (10 mM HEPES, 150 mM NaCl, 3.4 mM EDTA, 0.005% polysorbate 20 (w/v). 1.0 mg/ml CMD was added to reduce unspecific binding. Results are shown in Table 1.

The term koff denotes the rate constant with which the complex falls apart. A low value points to slow dissociation. As a reminder, the kon is the second-order rate constant of association. The low end stands for slow association, the high end for fast association.

B1: Mab Cl. 21.3.1 (antibody, V domains shown)
VH: AVQVVESGGDLVKPGGSLQLSCAASGFTFSSYAMSWARQTPEKRLEWVATISGRGTYTYYPDSVKGRFTISRDNAKNILYLQMSSLRSEDTAMYYCTPRLFAYWGQGTLVTVSA
VL: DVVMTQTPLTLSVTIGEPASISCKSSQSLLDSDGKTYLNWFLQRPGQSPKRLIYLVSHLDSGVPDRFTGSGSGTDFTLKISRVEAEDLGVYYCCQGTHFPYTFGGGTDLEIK
As for B1, the binding result in test [1] was “binds”.

B2: Mab Cl. 19.1.2 (antibody, V domains shown)
VH: QVQLQQSGAELVRPGSSVKISCKASGYTFSRYWMNWVKQRPGQGLEWIGQIYPGDGDTNYIGDFKGKATLTADKSSSIAYMQLSSLTSEDSAVYFCARLMVPTYGLDYWGQGTSVTVSS
VL: DIVMSQSPSSLAVSAGEKVTMSCKSSQSLLNSRTRKNYLAWYQQKPGQSPKLLIYWASTRESGVPDRFTGSGSGTDFTLTIYSVQAEDLAVYYCKESYILPYTLGGGTKLEIK
notes: Mouse (Balb/c) monoclonal raised against peptide 382-402
In the case of B2, the binding result in test [1] is listed as “binds”. Moreover, in test [2], the Ka turned out to be 1.1e+09 M⁻¹, the Kd was found to be 1 nM, the koff was determined as 0.0021 s⁻¹ and the kon came out at 1.9e+06 M⁻¹ s⁻¹.

Values taken from patent US20110165592A1 (HOFFMAN LA ROCHE, published 2011).
